The values below come from publication PMC5855017, “Label-Free Aptasensor for Lysozyme Detection Using Electrochemical Impedance Spectroscopy”.

This series concerns the target Lysozyme (UniProt P00698 19-147). Kind of series: electrochemical impedance spectroscopy (label-free aptasensor); PEG-blocked electrode; 0.25-5 uM lysozyme; LOD 1.67 uM, slope 0.090 uM-1 (not Kd); Room temperature incubation; buffers listed: PBS (187 mM NaCl, 2.7 mM KCl, 8.1 mM Na2HPO4, 1.76 mM KH2PO4, pH 7.0) and BB (1 mM MgCl2, 2.7 mM KCl, 140 mM NaCl). Particulars: protein: commercial.

Sequence of Lysozyme (P00698 19-147): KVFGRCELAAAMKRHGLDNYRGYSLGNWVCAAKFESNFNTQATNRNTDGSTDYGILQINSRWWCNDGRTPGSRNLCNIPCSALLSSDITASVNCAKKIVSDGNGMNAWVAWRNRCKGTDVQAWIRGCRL

As for ATCTACGAATTCATCAGGGCTAAAGAGTGCAGAGTTACTTAG (ssDNA, 5' aminolink C6, immobilized via amide bond on graphite-epoxy electrode) [AptLys (lysozyme aptamer)], the binding result was “binds”.
